In patent US20230136228A1 (LAMKAP BIO ALPHA, published 2023):

Tests used:
[1] = molecular target: T1, human CEACAM5 (carcinoembryonic antigen, CEA), cell surface (human, UniProt P06731 35-685); experiment: cell-based or functional assay
T1 sequence (looked up): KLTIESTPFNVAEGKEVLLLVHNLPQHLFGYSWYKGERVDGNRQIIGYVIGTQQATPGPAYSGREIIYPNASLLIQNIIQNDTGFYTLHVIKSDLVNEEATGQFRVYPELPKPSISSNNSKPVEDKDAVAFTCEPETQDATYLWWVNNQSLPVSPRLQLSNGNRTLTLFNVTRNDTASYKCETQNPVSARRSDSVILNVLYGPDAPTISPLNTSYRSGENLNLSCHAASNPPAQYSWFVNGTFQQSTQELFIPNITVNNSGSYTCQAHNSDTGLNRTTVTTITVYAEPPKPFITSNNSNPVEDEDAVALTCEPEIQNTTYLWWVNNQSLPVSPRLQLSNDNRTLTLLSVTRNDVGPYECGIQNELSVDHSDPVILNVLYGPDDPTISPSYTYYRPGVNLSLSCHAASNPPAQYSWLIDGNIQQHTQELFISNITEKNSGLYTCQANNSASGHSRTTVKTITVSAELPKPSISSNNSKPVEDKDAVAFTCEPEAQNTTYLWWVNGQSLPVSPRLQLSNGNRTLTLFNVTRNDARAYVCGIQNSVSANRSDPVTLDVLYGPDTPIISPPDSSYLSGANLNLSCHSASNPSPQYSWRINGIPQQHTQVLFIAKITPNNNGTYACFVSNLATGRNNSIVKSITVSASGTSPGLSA

human CEACAM6 = molecular target: T2, human CEACAM6 (human, UniProt P40199 35-320); experiment: flow cytometry, MFI on transfected PEAK cells divided by MFI on WT PEAK cells
T2 construct: whole, on cells; also called CD66c
T2 sequence (looked up): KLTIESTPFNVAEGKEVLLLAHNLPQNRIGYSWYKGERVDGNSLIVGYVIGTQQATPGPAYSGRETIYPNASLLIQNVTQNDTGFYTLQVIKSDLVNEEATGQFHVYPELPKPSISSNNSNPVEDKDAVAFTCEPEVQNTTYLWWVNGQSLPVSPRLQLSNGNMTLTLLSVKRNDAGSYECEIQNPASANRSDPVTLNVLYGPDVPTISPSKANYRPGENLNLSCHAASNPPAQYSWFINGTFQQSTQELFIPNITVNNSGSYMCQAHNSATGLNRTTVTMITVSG
Procedure: (§1) Similarly, vectors encoding the full-length version of cyno CEACAM 5 and 6 are also used to express these proteins at the surface of PEAK and/or CHO cells. Non-transfected PEAK and/or CHO cells are used as negative control. Cells are harvested, counted, checked for viability and resuspended at 3×10⁶ cells/ml in FACS buffer (PBS 2% BSA, 0.1% NaN₃). 100 μl of the cell suspension are distributed in V-bottom 96-well plates (3×10⁵ cells/well). The supernatant is removed by centrifugation 3 minutes at 4° C., 1300 rpm and the cells incubated for 15 minutes at 4° C. with increasing concentrations of the antibody according to the invention. The antibodies carrying the anti-CEACAM5 arms to test are diluted in FACS buffer and the concentration range is 30 pM-500 nM. Cells are washed twice with cold FACS buffer and re-incubated for further 15 minutes at 4° C. with a compatible anti-human IgG secondary antibody. Cells are washed twice with cold FACS buffer and resuspended in 300 μl FACS buffer with 1:1500-diluted TOPRO-3 (Invitrogen). Fluorescence is measured using a FACSCalibur™ (BD Biosciences) or a Cytoflex Platform (Beckman Coulter). Dose-response binding curves are fitted using GraphPad Prism8 software. In the same manner, CEACAM1, CEACAM6 and other CEACAMs can be characterized.
(§2) For the bispecific antibodies AB17L3-1/N, AB71L3-1/N, AB72L3-1/N, AB73L3-1/N the MFI measured for binding to CEACAM5 transfected cells was found between 29000 and 41000 (Table 2). In contrast MFI found by using PEAK cells transfected with CEACAM 1,3,4,6,8 were found below 1000 with the only exception of a strong signal for AB72L3-1/N on CEACAM8 transfected cells. When MFI values obtained on transfected cells expressing any given CEACAM are divided by the values obtained on WT PEAK cells, “factors to PEAK WT” can be calculated (Table 3). With the exception of AB72L3-1/N, the antibodies of the invention are all specific to CEACAM5, as the “factor to PEAK WT” values are all below 2.0.

[2] = molecular target: T1, human CEACAM5 (carcinoembryonic …); experiment: as above
Procedure: as §1, §2

[3] = molecular target: T3, shed soluble CEACAM5 (sCEA) (human, UniProt P06731 35-685, limits assumed); experiment: cell-based or functional assay
T3 sequence (looked up): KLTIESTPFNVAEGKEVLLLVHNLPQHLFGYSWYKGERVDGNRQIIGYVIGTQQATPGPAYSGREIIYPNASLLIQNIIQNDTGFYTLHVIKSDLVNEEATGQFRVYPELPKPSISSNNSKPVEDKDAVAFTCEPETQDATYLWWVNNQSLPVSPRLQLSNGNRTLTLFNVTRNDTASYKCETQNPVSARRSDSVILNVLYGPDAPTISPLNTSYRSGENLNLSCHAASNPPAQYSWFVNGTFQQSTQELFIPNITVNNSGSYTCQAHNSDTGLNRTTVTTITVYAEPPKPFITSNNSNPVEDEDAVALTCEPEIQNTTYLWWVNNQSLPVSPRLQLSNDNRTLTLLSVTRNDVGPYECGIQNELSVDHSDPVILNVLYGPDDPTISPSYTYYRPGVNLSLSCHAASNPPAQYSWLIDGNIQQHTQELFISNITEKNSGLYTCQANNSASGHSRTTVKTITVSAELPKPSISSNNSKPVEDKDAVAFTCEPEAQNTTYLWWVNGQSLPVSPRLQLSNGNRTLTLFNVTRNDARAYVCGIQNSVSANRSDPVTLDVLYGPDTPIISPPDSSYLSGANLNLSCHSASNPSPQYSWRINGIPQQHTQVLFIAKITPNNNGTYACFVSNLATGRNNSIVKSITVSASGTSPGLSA

B1: AB73L3-1/N (bispecific antibody, human IgG1, kappa, lambda, L234A L235A)
heavy: EVQLVESGGGLVQPGGSLKLSCAASGFTFNTYAMNWVRQAPGKGLEWVGRIRSKYNNYATYYADSVKDRFTISRDDSKNTAYLQMNSLKTEDTAVYYCVRHGNFGNSYVSWFAYWGQGTLVTVSSASTKGPSVFPLAPSSKSTSGGTAALGCLVKDYFPEPVTVSWNSGALTSGVHTFPAVLQSSGLYSLSSVVTVPSSSLGTQTYICNVNHKPSNTKVDKRVEPKSCDKTHTCPPCPAPEAAGGPSVFLFPPKPKDTLMISRTPEVTCVVVDVSHEDPEVKFNWYVDGVEVHNAKTKPREEQYNSTYRVVSVLTVLHQDWLNGKEYKCKVSNKALAAPIEKTISKAKGQPREPQVYTLPPSREEMTKNQVSLTCLVKGFYPSDIAVEWESNGQPENNYKTTPPVLDSDGSFFLYSKLTVDKSRWQQGNVFSCSVMHEALHNHYTQKSLSLSPG
light 1: EIVLTQSPATLSLSPGERATLSCRASQSVNSNLNWYQQKPGQAPRLLIYHSNNRPHGIPARFSGSGSGTDFTLTISSLEPEDFAVYYCQQFDYFREYNTFGQGTKVEIKRTVAAPSVFIFPPSDEQLKSGTASVVCLLNNFYPREAKVQWKVDNALQSGNSQESVTEQDSKDSTYSLSSTLTLSKADYEKHKVYACEVTHQGLSSPVTKSFNRGEC
light 2: QTVVTQEPSLTVSPGGTVTLTCRSSTGAVTTSNYANWFQQKPGQAPRGLIGGTNKRAPGTPARFSGSLLGGKAALTLSGAQPEDEAEYYCALWYKQRWVFGGGTKLTVLGQPKAAPSVTLFPPSSEELQANKATLVCLISDFYPGAVTVAWKADSSPVKAGVETTTPSKQSNNKYAASSYLSLTPEQWKSHRSYSCQVTHEGSTVEKTVAPTECS
notes: Kappa-lambda body, lead optimization wave 2
B1 was tested, and the “Killing EC50, HPAFII cells (TDCC, LDH release)” value [1] was 0.13 nM, the “Killing EC50, LS174T cells (TDCC, LDH release)” value [1] was 0.06 nM and the “Killing EC50, MKN45 cells (TDCC, LDH release)” value [1] was 0.03 nM. The “Factor to PEAK WT” value (human CEACAM6) was 1 fold, the “Factor to PEAK WT” value [2] was 70.8 fold and the “EC50 fold change compared to no shed CEA condition, sCEA 0 µg/mL (reference)” value [3] was 1 fold. For the same binder, the “EC50 fold change compared to no shed CEA condition, sCEA 0.2 µg/mL” value [3] was 0.8 fold, the “EC50 fold change compared to no shed CEA condition, sCEA 1 µg/mL” value [3] was 2.9 fold and the “EC50 fold change compared to no shed CEA condition, sCEA 5 µg/mL” value [3] was 7.4 fold.
